Assay results: patent US20060226082A1, “Methods for substrate and modulator screening using enzyme-reactor chromatography/tandem mass spectrometry” (McMaster University, priority 2005, published 2006)

Substrate: Nc1ncnc2c1ncn2[C@@H]1O[C@H](CO)[C@@H](O)[C@H]1O
Test: Absorbance-based assay of ADA in solution
Type: biochemical, bovine
Conditions: other: ADA in solution, absorbance assay (FIG. 7)
Method: FIG. 7 is a graph showing the assessment of Km values for ADA in solution using an absorbance-based assay.
The KI value was determined by extrapolation of IC50 values to the point of zero substrate concentration. The method is based on the derivation described by Cheng and Prusoff,^26 as shown below. Km values were obtained using immobilized enzyme reactor columns by plotting the concentration of product formed upon infusion of a given concentration of substrate and fitting the data to the Michaelis-Menten equation. The data was compared to that obtained using a conventional absorbance based assay (see below).^27

B1: adenosine deaminase (ADA) in solution (Bos taurus) (protein)
chain: MAQTPAFNKPKVELHVHLDGAIKPETILYYGRKRGIALPADTPEELQNIIGMDKPLSLPEFLAKFDYYMPAIAGCREAVKRIAYEFVEMKAKDGVVYVEVRYSPHLLANSKVEPIPWNQAEGDLTPDEVVSLVNQGLQEGERDFGVKVRSILCCMRHQPSWSSEVVELCKKYREQTVVAIDLAGDETIEGSSLFPGHVKAYAEAVKSGVHRTVHAGEVGSANVVKEAVDTLKTERLGHGYHTLEDATLYNRLRQENMHFEVCPWSSYLTGAWKPDTEHPVVRFKNDQVNYSLNTDDPLIFKSTLDTDYQMTKNEMGFTEEEFKRLNINAAKSSFLPEDEKKELLDLLYKAYGMPSPASAEQCL
notes: Adenosine deaminase (ADA, Type V, from bovine intestine, EC 3.5.4.4); purchased Sigma-Aldrich (Oakville, Ontario, Canada) Type V (catalogue number not given); host or cells: bovine intestine (tissue-derived)
Km: 89 µM
